Earlier results, collected in publication PMC7226360.

Target: NEDD8 (Homo sapiens) (UniProt Q15843)
Sequence (Q15843 1-76): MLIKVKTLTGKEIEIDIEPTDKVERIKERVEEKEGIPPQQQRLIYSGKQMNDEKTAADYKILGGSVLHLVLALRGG

Chain of KHNYN 627-678 (O15037 627-678): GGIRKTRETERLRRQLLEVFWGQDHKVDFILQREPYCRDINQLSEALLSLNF

Kd: 24 µM
Substance: KHNYN 627-678 (from UniProt O15037)
